Square brackets hold non-standard residues; d marks the D form. Ends that are not written are not given here. * marks the point of attachment. Pro(diF) = difluoro-proline, as coded in the source; PEG8 = NCCOCCOCCOCCOCCOCCOCCOCCOCCC(=O)O; dOic = O=C(O)[C@H]1C[C@H]2CCCC[C@H]2N1; 1Nal = N[C@@H](Cc1cccc2ccccc12)C(=O)O; 2Nal = N[C@@H](Cc1ccc2ccccc2c1)C(=O)O; dNMeY = CN[C@H](Cc1ccc(O)cc1)C(=O)O; Hydrocinnamoyl = O=C(CCc1ccccc1)*; NMehLeu = CN[C@@H](CCC(C)C)C(=O)O; Palmitoyl = CCCCCCCCCCCCCCCC(=O)*; NMeF = CN[C@@H](Cc1ccccc1)C(=O)O; Myristoyl = CCCCCCCCCCCCCC(=O)*; Tic = O=C(O)[C@@H]1Cc2ccccc2CN1; dTic = O=C(O)[C@H]1Cc2ccccc2CN1; NMeL = CN[C@@H](CC(C)C)C(=O)O; Lauroyl = CCCCCCCCCCCC(=O)*; NHoSer = not defined here; NMeS = CN[C@@H](CO)C(=O)O; hSer = N[C@@H](CCO)C(=O)O; Thz = O=C(O)[C@@H]1CSCN1; dTi1c = not defined here; βAla = NCCC(=O)O
T1: human Chemokine like receptor 1 (human, UniProt Q99788 1-373)
T1 sequence (looked up): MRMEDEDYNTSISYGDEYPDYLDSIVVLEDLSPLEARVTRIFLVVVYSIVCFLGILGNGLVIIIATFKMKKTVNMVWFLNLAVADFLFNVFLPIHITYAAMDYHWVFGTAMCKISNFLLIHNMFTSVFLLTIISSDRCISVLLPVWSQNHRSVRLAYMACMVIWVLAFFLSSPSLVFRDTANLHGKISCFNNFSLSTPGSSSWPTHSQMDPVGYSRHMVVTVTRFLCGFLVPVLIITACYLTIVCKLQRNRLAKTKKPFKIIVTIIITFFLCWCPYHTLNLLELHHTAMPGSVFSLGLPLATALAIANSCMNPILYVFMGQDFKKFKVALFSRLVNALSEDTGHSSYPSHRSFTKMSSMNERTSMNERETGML

B1: YW-100 (peptide)
peptide: [dY]F[NMeF]P[dS]QF[dA][Tic]S-OH
modifications: N-terminus assumed
SMILES: C[C@@H](NC(=O)[C@H](Cc1ccccc1)NC(=O)[C@H](CCC(N)=O)NC(=O)[C@@H](CO)NC(=O)[C@@H]1CCCN1C(=O)[C@H](Cc1ccccc1)N(C)C(=O)[C@H](Cc1ccccc1)NC(=O)[C@H](N)Cc1ccc(O)cc1)C(=O)N1Cc2ccccc2C[C@H]1C(=O)N[C@@H](CO)C(=O)O
B2: YW-184 (peptide)
peptide: [dY]F[NPrL]P[dS]QF[dA][Tic]S
B3: YW-185 (peptide)
peptide: Hydrocinnamoyl-[dY]F[NEtL]P[dS]QF[dA][Tic]S
B4: YW-162 (peptide)
peptide: [dNMeY]F[NMeL]P[dS]Q[1Nal][dA][Tic][NMeS]-OH
modifications: N-terminus assumed
SMILES: CN[C@H](Cc1ccc(O)cc1)C(=O)N[C@@H](Cc1ccccc1)C(=O)N(C)[C@@H](CC(C)C)C(=O)N1CCC[C@H]1C(=O)N[C@H](CO)C(=O)N[C@@H](CCC(N)=O)C(=O)N[C@@H](Cc1cccc2ccccc12)C(=O)N[C@H](C)C(=O)N1Cc2ccccc2C[C@H]1C(=O)N(C)[C@@H](CO)C(=O)O
B5: YW-183 (peptide)
peptide: [dY]F[NEtL]P[dS]QF[dA][Tic]S
B6: YW-164 (peptide)
peptide: [dY]F[NMeL]P[dS]Q[2Nal][dA][Tic]S-OH
modifications: N-terminus assumed
SMILES: CC(C)C[C@@H](C(=O)N1CCC[C@H]1C(=O)N[C@H](CO)C(=O)N[C@@H](CCC(N)=O)C(=O)N[C@@H](Cc1ccc2ccccc2c1)C(=O)N[C@H](C)C(=O)N1Cc2ccccc2C[C@H]1C(=O)N[C@@H](CO)C(=O)O)N(C)C(=O)[C@H](Cc1ccccc1)NC(=O)[C@H](N)Cc1ccc(O)cc1
B7: YW-101 (peptide)
peptide: [dY]F[NMehLeu]P[dS]QF[dA][Tic]S-OH
modifications: N-terminus assumed
SMILES: CC(C)CC[C@@H](C(=O)N1CCC[C@H]1C(=O)N[C@H](CO)C(=O)N[C@@H](CCC(N)=O)C(=O)N[C@@H](Cc1ccccc1)C(=O)N[C@H](C)C(=O)N1Cc2ccccc2C[C@H]1C(=O)N[C@@H](CO)C(=O)O)N(C)C(=O)[C@H](Cc1ccccc1)NC(=O)[C@H](N)Cc1ccc(O)cc1
B8: YW-171 (peptide)
peptide: [dY]F[NMeL]P[dS]QF[dA][Tic][hSer]-OH
modifications: N-terminus assumed
SMILES: CC(C)C[C@@H](C(=O)N1CCC[C@H]1C(=O)N[C@H](CO)C(=O)N[C@@H](CCC(N)=O)C(=O)N[C@@H](Cc1ccccc1)C(=O)N[C@H](C)C(=O)N1Cc2ccccc2C[C@H]1C(=O)N[C@@H](CCO)C(=O)O)N(C)C(=O)[C@H](Cc1ccccc1)NC(=O)[C@H](N)Cc1ccc(O)cc1
B9: YW-174 (peptide)
peptide: [dY]F[NMeL][Pro(diF)][dS]QF[dA][Tic]S-OH
B10: YW-180 (peptide)
peptide: {Myristoyl-PEG8}-[βAla][βAla][dNMeY]F[NMeL]P[dS]Q[2Nal][dA][Tic][NMeS]
B11: YW-166 (peptide)
peptide: [dY]F[NMeL]P[dS]QF[dA][Tic][NMeS]-OH
modifications: N-terminus assumed
SMILES: CC(C)C[C@@H](C(=O)N1CCC[C@H]1C(=O)N[C@H](CO)C(=O)N[C@@H](CCC(N)=O)C(=O)N[C@@H](Cc1ccccc1)C(=O)N[C@H](C)C(=O)N1Cc2ccccc2C[C@H]1C(=O)N(C)[C@@H](CO)C(=O)O)N(C)C(=O)[C@H](Cc1ccccc1)NC(=O)[C@H](N)Cc1ccc(O)cc1
B12: YW-182 (peptide)
peptide: [dY]F[NMeL]P[dS]QF[dA][dTic][NMeS]
B13: YW-177 (peptide)
peptide: [dY]F[NMeL]P[dS]QF[dA][Tic][NMeHoSer]-OH
B14: YW-153 (peptide)
peptide: [dY]F[NMeL]P[dS]QF[dA][dTi1c]S-OH
modifications: reading uncertain; also: printed as (D-Tyr)-Phe-(NMe-Leu)-Pro-(D-Ser)-Gln-Phe-(D-Ala)-(D-Ti1c)-Ser
B15: YW-148 (peptide)
peptide: [dNMeY]F[NMeL][Thz][dS]Q[2Nal][dA][Tic]S-OH
modifications: N-terminus assumed
SMILES: CN[C@H](Cc1ccc(O)cc1)C(=O)N[C@@H](Cc1ccccc1)C(=O)N(C)[C@@H](CC(C)C)C(=O)N1CSC[C@H]1C(=O)N[C@H](CO)C(=O)N[C@@H](CCC(N)=O)C(=O)N[C@@H](Cc1ccc2ccccc2c1)C(=O)N[C@H](C)C(=O)N1Cc2ccccc2C[C@H]1C(=O)N[C@@H](CO)C(=O)O
B16: YW-181 (peptide)
peptide: {Lauroyl-PEG8}-[βAla][βAla][dNMeY]F[NMeL]P[dS]Q[2Nal][dA][Tic][NMeS]
B17: YW-172 (peptide)
peptide: [dY]F[NMeL]P[dS]QF[dA][Tic][NHoSer]-OH
modifications: reading uncertain; also: printed as (D-Tyr)-Phe-(NMe-Leu)-Pro-(D-Ser)-Gln-Phe-(D-Ala)-Tic-(NHoSer)
B18: YW-163 (peptide)
peptide: [dNMeY]F[NMeL]P[dS]QF[dA][Tic]S-OH
modifications: N-terminus assumed
SMILES: CN[C@H](Cc1ccc(O)cc1)C(=O)N[C@@H](Cc1ccccc1)C(=O)N(C)[C@@H](CC(C)C)C(=O)N1CCC[C@H]1C(=O)N[C@H](CO)C(=O)N[C@@H](CCC(N)=O)C(=O)N[C@@H](Cc1ccccc1)C(=O)N[C@H](C)C(=O)N1Cc2ccccc2C[C@H]1C(=O)N[C@@H](CO)C(=O)O
B19: YW-165 (peptide)
peptide: [dY]F[NMeL]P[dS]Q[1Nal][dA][Tic]S-OH
modifications: N-terminus assumed
SMILES: CC(C)C[C@@H](C(=O)N1CCC[C@H]1C(=O)N[C@H](CO)C(=O)N[C@@H](CCC(N)=O)C(=O)N[C@@H](Cc1cccc2ccccc12)C(=O)N[C@H](C)C(=O)N1Cc2ccccc2C[C@H]1C(=O)N[C@@H](CO)C(=O)O)N(C)C(=O)[C@H](Cc1ccccc1)NC(=O)[C@H](N)Cc1ccc(O)cc1
B20: YW-176 (peptide)
peptide: [dY]F[NMeL]P[dS]QF[dA][dOic]S-OH
B21: YW-161 (peptide)
peptide: Hydrocinnamoyl-[dY]F[NMeL]P[dS]QF[dA][Tic]S-NH2
SMILES: CC(C)C[C@@H](C(=O)N1CCC[C@H]1C(=O)N[C@H](CO)C(=O)N[C@@H](CCC(N)=O)C(=O)N[C@@H](Cc1ccccc1)C(=O)N[C@H](C)C(=O)N1Cc2ccccc2C[C@H]1C(=O)N[C@@H](CO)C(N)=O)N(C)C(=O)[C@H](Cc1ccccc1)NC(=O)[C@@H](Cc1ccc(O)cc1)NC(=O)CCc1ccccc1
B22: YW-175 (peptide)
peptide: [dY]F[NMeL]P[dHoSer]QF[dA][Tic]S-OH
B23: YW-168 (peptide)
peptide: [dNMeY]F[NMeL]P[dS]Q[1Nal][dA][Tic]S-OH
modifications: N-terminus assumed
SMILES: CN[C@H](Cc1ccc(O)cc1)C(=O)N[C@@H](Cc1ccccc1)C(=O)N(C)[C@@H](CC(C)C)C(=O)N1CCC[C@H]1C(=O)N[C@H](CO)C(=O)N[C@@H](CCC(N)=O)C(=O)N[C@@H](Cc1cccc2ccccc12)C(=O)N[C@H](C)C(=O)N1Cc2ccccc2C[C@H]1C(=O)N[C@@H](CO)C(=O)O
B24: YW-178 (peptide)
peptide: {Palmitoyl-PEG8}-GG[dNMeY]F[NMeL]P[dS]Q[2Nal][dA][Tic][NMeS]
B25: YW-167 (peptide)
peptide: [dNMeY]F[NMeL]P[dS]Q[2Nal][dA][Tic]S-OH
modifications: N-terminus assumed
SMILES: CN[C@H](Cc1ccc(O)cc1)C(=O)N[C@@H](Cc1ccccc1)C(=O)N(C)[C@@H](CC(C)C)C(=O)N1CCC[C@H]1C(=O)N[C@H](CO)C(=O)N[C@@H](CCC(N)=O)C(=O)N[C@@H](Cc1ccc2ccccc2c1)C(=O)N[C@H](C)C(=O)N1Cc2ccccc2C[C@H]1C(=O)N[C@@H](CO)C(=O)O
B26: YW-179 (peptide)
peptide: {Palmitoyl-PEG8}-[βAla][βAla][dNMeY]F[NMeL]P[dS]Q[2Nal][dA][Tic][NMeS]

Biological target: T1, human Chemokine like receptor 1
Experiment: cell-based or functional assay

Binder | EC50 (µM), activation of Tango CMKLR1-bla U2OS cells [µM]
B1 | 0.042
B2 | 0.016
B3 | 0.0059
B4 | 0.0026
B5 | 0.0092
B6 | 0.0011
B7 | 0.0029
B8 | 0.029
B9 | 0.0012
B10 | 0.0014
B11 | 0.005
B12 | 0.041
B13 | 0.025
B14 | 0.0085
B15 | 0.0005
B16 | 0.0022
B17 | 0.0058
B18 | 0.0022
B19 | 0.0015
B20 | 0.0038
B21 | 0.003
B22 | 0.091
B23 | 0.0012
B24 | 0.0021
B25 | 0.0008
B26 | 0.0021
